How the values were obtained:
[1] = molecular target: human FcRn (human) (UniProt P55899); assay: BIAcore, FcRn immobilised, pH 6.0
[2] = molecular target: human FcRn (human) (UniProt P55899); assay: BIAcore equilibrium analysis, FcRn immobilised on CM5 chip, pH 6.0
[3] = molecular target: rat FcRn (rat) (UniProt P13599); assay: BIAcore, FcRn immobilised
[4] = molecular target: T1, human CD20 on WIL2-S cells (human, UniProt P11836 1-297); assay: cell-based ELISA, WIL2-S cells; conc. 2H7.v16 / conc. variant
T1 construct: whole, on cells; also called CD20 antigen; hCD20
T1 sequence (looked up): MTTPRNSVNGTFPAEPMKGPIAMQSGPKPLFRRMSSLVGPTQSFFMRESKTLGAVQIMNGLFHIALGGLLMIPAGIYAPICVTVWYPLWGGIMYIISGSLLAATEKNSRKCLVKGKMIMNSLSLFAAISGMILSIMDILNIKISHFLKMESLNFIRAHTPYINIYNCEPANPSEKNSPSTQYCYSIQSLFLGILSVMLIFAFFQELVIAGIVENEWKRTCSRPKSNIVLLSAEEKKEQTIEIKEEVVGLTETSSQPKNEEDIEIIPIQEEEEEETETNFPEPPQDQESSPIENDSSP
Experimental: To measure relative binding affinities to the CD20 antigen, a cell-based ELISA assay was developed. […] The cells were washed with PBS containing 1% FBS (assay buffer) and seeded at 250-300,000 cell/well in 96-well round bottom plates (Nunc, Roskilde, Denmark). […] The plates were buried in ice and incubated for 45 min. To remove the unbound antibody, 0.1 mL assay buffer were added to the wells. Plates were centrifuged and supernatants were removed. Cells were washed two more times with 0.2 mL assay buffer. Antibody bound to the plates was detected by adding peroxidase conjugated goat anti-human Fc antibody (Jackson ImmunoResearch, West Grove, Pa.) to the plates. After a 45 min incubation, cells were washed as described before. TMB substrate (3,3′,5,5′-tetramethyl benzidine; Kirkegaard & Perry Laboratories, Gaithersburg, Md.) was added to the plates. The reaction was stopped by adding 1 M phosphoric acid. Titration curves were fit with a four-parameter nonlinear regression curve-fitting program (KaleidaGraph, Synergy software, Reading, Pa.). The absorbance at the midpoint of the titration curve (mid-OD) and its corresponding concentration of the standard were determined. Then the concentration of each variant at this mid-OD was determined, and the concentration of the standard was divided by that of each variant.

[5] = molecular target: T1, human CD20 on WIL2-S cells; assay: competitive Scatchard analysis, WIL2-S cells; labelled competitor 125I-2H7.v138; ± standard error of fit
Experimental: (§1) All dilutions were performed in binding assay buffer (DMEM media containing 0.5% bovine serum albumin, 25 mM HEPES pH 7.2, and 0.01% sodium azide). […] Serial dilutions (0.05 mL) of unlabelled antibody were added and mixed. 30,000 WIL2-S cells in a volume of 0.05 mL was added to each well. The plates were sealed and incubated at room temperature for 24 h, then centrifuged for 15 min at 2,500 RPM. The supernatant was then aspirated and the cell pellets were washed and centrifuged. The supernatant was again aspirated, and the pellets were dissolved in 1N NaOH and transferred to tubes for gamma counting.

[6] = molecular target: T1, human CD20 on WIL2-S cells; assay: competitive Scatchard analysis, WIL2-S cells; labelled 125I-2H7.v511; ± standard error of fit
Experimental: as §1

[7] = molecular target: T2, soluble CD20 (Genentech) (UniProt P11836 1-297, limits assumed); assay: ELISA on plate-coated soluble CD20, bound IgG detected with HRP anti-human Fab, OD450
T2 construct: Coated on ELISA plates; also called solubilized CD20
T2 sequence (looked up): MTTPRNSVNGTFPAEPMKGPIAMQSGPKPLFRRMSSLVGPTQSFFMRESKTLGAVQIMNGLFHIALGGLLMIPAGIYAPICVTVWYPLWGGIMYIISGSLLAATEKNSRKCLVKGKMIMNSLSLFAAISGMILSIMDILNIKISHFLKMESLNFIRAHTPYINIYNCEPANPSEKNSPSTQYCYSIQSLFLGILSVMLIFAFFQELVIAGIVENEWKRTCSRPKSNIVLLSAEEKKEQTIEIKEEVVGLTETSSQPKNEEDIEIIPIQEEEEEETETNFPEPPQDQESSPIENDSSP
Experimental: As an additional comparison of the binding activity of 2H7 variants, an ELISA was performed with solubilized CD20.
Serial dilutions of samples in 0.5% BSA were incubated on the plates for 2 h. After washing, bound antibodies were detected with HRP-conjugated anti-human Fab antibody (Goat anti-human Ig, Fab′2-HRP conjugate, from NB) using 3,3′,5,5′-tetramethyl benzidine (Kirkegaard and Perry Laboratories, Gaithersburg, Md.) as substrate. Absorbance was read at 450 nm. Titration curves were fit with a four-parameter nonlinear regression curve-fitting program (KaleidaGraph; Synergy Software, Reading, Pa.). Concentrations of antibody variants corresponding to the midpoint absorbance of the titration curve of the standard were calculated.

human FcRn (human), sequence (P55899 24-297 limits assumed, chain 1 of 2): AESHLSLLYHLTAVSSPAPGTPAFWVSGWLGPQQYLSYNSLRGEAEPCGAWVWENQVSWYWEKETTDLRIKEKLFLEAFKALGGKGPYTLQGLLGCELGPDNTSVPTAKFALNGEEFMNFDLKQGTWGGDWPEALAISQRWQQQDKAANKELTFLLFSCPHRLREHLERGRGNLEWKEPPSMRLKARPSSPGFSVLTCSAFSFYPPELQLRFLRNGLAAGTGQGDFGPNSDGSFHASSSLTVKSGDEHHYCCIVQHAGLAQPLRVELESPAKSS
human FcRn (human), sequence (chain, as listed by the source limits assumed, chain 2 of 2): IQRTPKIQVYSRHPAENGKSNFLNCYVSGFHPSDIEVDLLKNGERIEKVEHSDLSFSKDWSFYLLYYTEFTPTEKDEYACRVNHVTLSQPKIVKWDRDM
rat FcRn (rat), sequence (P13599 23-298 limits assumed): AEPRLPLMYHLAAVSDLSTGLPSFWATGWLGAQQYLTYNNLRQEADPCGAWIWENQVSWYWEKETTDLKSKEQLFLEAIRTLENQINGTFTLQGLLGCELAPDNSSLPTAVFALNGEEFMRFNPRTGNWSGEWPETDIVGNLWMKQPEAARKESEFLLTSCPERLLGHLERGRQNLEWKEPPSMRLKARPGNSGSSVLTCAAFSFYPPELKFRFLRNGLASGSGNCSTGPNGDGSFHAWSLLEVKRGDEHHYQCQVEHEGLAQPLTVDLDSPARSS

soluble Fc variant N434W
fold increase in affinity over wild-type Fc [1]: 170 fold | Kd [2]: 4 nM | fold better binding relative to wild-type Fc [3]: 10 fold

parental hingeless Fc (wild-type)
Kd [2]: 700 nM

soluble Fc variant N434A
fold increase in affinity over wild-type Fc [1]: 2.7 fold

soluble Fc variant N434F
fold increase in affinity over wild-type Fc [1]: 9 fold

soluble Fc variant N434A+E380A+T307A
fold increase in affinity over wild-type Fc [1]: 14 fold

B1: humanized 2H7.v166 (antibody, human IgG1, kappa, V domains shown)
VH: EVQLVESGGGLVQPGGSLRLSCAASGYTFTSYNMHWVRQAPGKGLEWVGAIYPGNGDTSYNQKFKGRFTISVDKSKNTLYLQMNSLRAEDTAVYYCARVVYYGGDWYFDVWGQGTLVTVSS
VL: DIQMTQSPSSLSASVGDRVTITCRASSSVSYMHWYQQKPGKAPKPLIYAPSNLASGVPSRFSGSGSGTDFTLTISSLQPEDFATYYCQQWSFNPPTFGQGTKVEIKR
notes: IgG1; changes vs v16
Relative binding [4]: 0.99 ratio

B2: humanized 2H7.v511 (antibody, human IgG1, kappa)
heavy: EVQLVESGGGLVQPGGSLRLSCAASGYTFTSYNMHWVRQAPGKGLEWVGAIYPGNGATSYNQKFKGRFTISVDKSKNTLYLQMNSLRAEDTAVYYCARVVYYSYRYWYFDVWGQGTLVTVSSASTKGPSVFPLAPSSKSTSGGTAALGCLVKDYFPEPVTVSWNSGALTSGVHTFPAVLQSSGLYSLSSVVTVPSSSLGTQTYICNVNHKPSNTKVDKKVEPKSCDKTHTCPPCPAPELLGGPSVFLFPPKPKDTLMISRTPEVTCVVVDVSHEDPEVKFNWYVDGVEVHNAKTKPREEQYNATYRVVSVLTVLHQDWLNGKEYKCKVSNAALPAPIAATISKAKGQPREPQVYTLPPSREEMTKNQVSLTCLVKGFYPSDIAVEWESNGQPENNYKTTPPVLDSDGSFFLYSKLTVDKSRWQQGNVFSCSVMHEALHNHYTQKSLSLSPGK
light: DIQMTQSPSSLSASVGDRVTITCRASSSVSYLHWYQQKPGKAPKPLIYAPSNLASGVPSRFSGSGSGTDFTLTISSLQPEDFATYYCQQWAFNPPTFGQGTKVEIKRTVAAPSVFIFPPSDEQLKSGTASVVCLLNNFYPREAKVQWKVDNALQSGNSQESVTEQDSKDSTYSLSSTLTLSKADYEKHKVYACEVTHQGLSSPVTKSFNRGEC
notes: Full-length IgG1; VH D56A, N100Y, S100aR; VL M32L, S92A; Fc S298A, K326A, E333A, K334A vs v16; also called hu2H7.v511
Kd [5]: 0.11 nM | Kd [6]: 0.45 nM | EC50 (read off the curve) [7]: ~0.02 µg/mL

From patent publication US20060246004A1 (Genentech, published 2006)
